Tests used:
human glioblastoma cells [1] = assay: Glioblastoma cells pre-treated with antibody, inoculated into the brain of immunodepressed mice, magnetic resonance scan; assay type: in vivo; conditions: cells incubated 72 hours with antibody before inoculation; scan two months after inoculation
Experimental: In the in vivo experiments, human glioblastoma cells were incubated for 72 hours with tmCLIC1omab antibody before being inoculated into the brain of immunodepressed mice.
Patient-derived neurospheres were mechanically dissociated, resuspended in […], and injected into the caudate nucleus (1 mm posterior, 3 mm left lateral, 3.5 mm deep relative to bregma) of 5-week-old female CD1 nu/nu mice (Charles River, Wilmington, MA). The cells were incubated with the antibody or the control isotype for 72 hours before implantation (10^5 cells) into the brain of immunodeficient mice. The experiments were conducted pursuant to Italian law (Order of the Executive 116/92, as amended), which transposes EU Directive 86/609 (Council Directive 86/609/EEC of 24 Nov. 1986 on the approximation of laws, regulations and administrative provisions of the Member States regarding the protection of animals used for experimental and other scientific purposes).

human glioblastoma cells [2] = assay: Growth curves of human glioblastoma cells in primary culture; assay type: cell-based
Excerpt: The primary glioblastoma cell lines, already tested for stem cell properties and carcinogenicity, were kindly supplied by Professor T. Florio's laboratory at Genoa University (Genoa, Italy). The cells were obtained from a surgical biopsy performed in the Neurosurgery Department of IRCCS-AOU San Martino IST (Genoa, Italy), from patients who had not received any treatment before the operation. The samples were histologically classified as GB grade IV (according to the WHO classification), and were used after obtaining the patients' informed consent and the approval of the Institutional Ethics Committee (IEC). The cells were cultured in stem cell-permissive medium consisting of Dulbecco's Modified Eagle's Medium (DMEM) and F12-GlutaMAX at the ratio of 1:1, supplemented with 1×B27 (Thermo Fisher Scientific), […] of fibroblast growth factor (FGF, Miltenyi Biotec), […] of human epidermal growth factor (EGF, Miltenyi Biotec) and 1% penicillin/streptomycin (Pen/Strep, […]) (Thermo Fisher Scientific).
The cells were seeded in 24-well plates (20,000 cells/well) and counted after 24, 48, 72 and 96 hours to construct the growth curve. The cells were collected and centrifuged, and the resuspended pellet was diluted 1:1 with Trypan Blue. An automated counter (Countess II, Thermo Fisher Scientific) was used to count the cells. All data were normalized to their controls.

COLO201 = assay: Trans well migration and invasion assay; assay type: cell-based; conditions: COLO201 WT, 72 h
Experimental: The overexpression of tmCLIC1 in the most aggressive cell lines of colorectal cancer and its pivotal role in regulation of cell cycle progression and proliferation, opens a question on the function of tmCLIC1 activity on migration and invasion potential of CRCs, that makes colorectal cancer still uncurable. We performed a Trans well assay to understand whether CLIC1 impairment could affect the migration and invasion potential of COLO201. Cells were plated after 60 hours of serum deprivation on a porous membrane, permeable only to growth factor, in contact to complete medium. The resulting chemo-attractant gradient leads the migrative cells to cross the membranes that are then stained with DAPI to visualize the nuclei. […] For invasion assays, we coated with Matrigel the porous membrane to mimic the extracellular matrix that cells must disrupt to invade tissues and mucosa.
Cells were plated after 60 hours of serum deprivation on a […] porous membrane, permeable only to growth factor, in contact to complete medium. Membranes were cut, stained with DAPI dye, and included with mowiol. Cover glasses were examined under Zeiss Examiner A1 fluorescence microscope with a Zeiss 40×/0.75 NA water immersion lens.

B1: tmCLIC1omab: IgG1 class antibody containing the heavy chain variable region SEQ ID NO:13 and the light chain variable region SEQ ID NO:14 (antibody, listed as Mus musculus, V domains shown)
VH: EVMLVESGGGLVKPGGSLKLSCAASGFAFSNYAMSWIRQIPEKRLEWVATISTGGSSTFYPDSVKGRFTISRDNAKNTLYLQMSSLRSEDTAMYYCTRHAYEAWFAYWGQGTLVTVSA
VL: QIVLTQSPALMSASPGEKVTMTCSASSSVSYMYWYQQRPRSSPKPWIYLTSTLASGVPTRFSGSGSGTSYSLTISSMEAEDAATYYCQQWNSHPLTFGSGTKLEIK
tumour mass on magnetic resonance scan (human glioblastoma cells [1]): much smaller mass | growth rate compared with Clic1−/− knockout cells (human glioblastoma cells [2]; glioblastoma cells, FIG. 9): the same growth rate | cell growth (growth curve) (human glioblastoma cells [2]; primary culture, 4-day period): inhibited cell growth | migration (number of migrative nuclei) versus control (COLO201): significant lower number of migrative nuclei | invasion (number of invasive nuclei) versus control (COLO201; Matrigel-coated membrane): the same behavior seen for migration assay
